One experiment concerns the target human IL-36R (human) (UniProt Q9HB29). In words: flow cytometry on CHO-K1 cells expressing human IL-36R; fit value in the second table under the plot for a flat curve (row ECF corresponds to EC90 of Table 8; no unit in the table, axis in µg/mL). (In flow cytometry, cells or beads pass a laser one at a time.)
In another experiment the target is monkey IL-36R (monkey). In words: flow cytometry on CHO-K1 cells expressing monkey IL-36R; fit value in the second table under the plot for a flat curve (row ECF corresponds to EC90 of Table 8; no unit in the table, axis in µg/mL).

Sequence of human IL-36R (human) (Q9HB29 20-575): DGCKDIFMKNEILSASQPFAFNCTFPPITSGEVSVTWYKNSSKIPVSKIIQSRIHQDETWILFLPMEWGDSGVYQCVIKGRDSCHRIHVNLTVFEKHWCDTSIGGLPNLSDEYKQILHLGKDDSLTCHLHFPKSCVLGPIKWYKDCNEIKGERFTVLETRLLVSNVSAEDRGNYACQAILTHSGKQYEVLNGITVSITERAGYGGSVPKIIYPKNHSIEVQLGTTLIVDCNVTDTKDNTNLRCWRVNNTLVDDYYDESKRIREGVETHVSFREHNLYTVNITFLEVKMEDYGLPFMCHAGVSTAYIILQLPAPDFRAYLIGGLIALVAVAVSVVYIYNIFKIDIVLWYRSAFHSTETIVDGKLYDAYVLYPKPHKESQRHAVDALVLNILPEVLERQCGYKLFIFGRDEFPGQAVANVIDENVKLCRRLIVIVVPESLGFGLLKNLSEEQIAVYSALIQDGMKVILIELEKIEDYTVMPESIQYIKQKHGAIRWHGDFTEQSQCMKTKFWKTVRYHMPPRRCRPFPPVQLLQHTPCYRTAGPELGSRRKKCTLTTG

Take “TNP IgG1 (Fc silence) negative control antibody 900543”: the ECF with human IL-36R (human) is 0.000494 µg/mL; with monkey IL-36R (monkey), 0.000457 µg/mL.

(Values after patent publication US20230399409A1.)
